Data reported in US20230303681A1 (published 2023).
Positions count from the first letter of the chain named. Several values for one entry are separate records, joined by “and”; a condition that tells them apart may be missing. Equal values may be shown once. Read-outs that look alike come from different tables or passages of the source.

B1: anti-TMEM106B antibody TM-1 (antibody, V domains shown)
VH: QVQLQQSGAELVRPGTSVKVSCKASGYAFTNYLIEWVKQRPGQGLEWIGVINPGSGGTKYNEKLKGKATLTADKSSSTAYMQLSSLTSVDSAVYFCARRGYTIYDFYAMDYWGQGTSVTVSS
VL: DVLMTQTPLSLPVSLGDHASISCRSSQSIVYNNGNTYLEWYLQKPGQSPKLLIYKVSNRFSGVPDRFSGSGSGTDFTLKISRVEAEDLGVYYCFQVSHVPFTFGSGTKLEIK
B2: anti-TMEM106B antibody TM-22 (antibody, V domains shown)
VH: QVQLQQSGPELVKPGASVKISCKASGYRFTSYYIHWVKQRPGQGLEWIGWIYPGNGITNYNEKFKGKATLTADTSSSTAYMQLSSLTSEDSAVYYCASPYYGIRNCYFDVWGTGTTVTVSS
VL: B1 VL with S26G, Y31H, N32S, V90I, V96G, F101W, S105G
B3: anti-TMEM106B antibody TM-19 (antibody, V domains shown)
VH: DVQLQQSGAELVRPGASVKLSCTASGFNIKDYYMYWVKQRPEQGLEWIGRIDPEDGDTENAPKFRGMATMTADTSSNTAYLQLNSLTSEDTAVYYCTTRIGNLYHVMDYWGHGTSVTVSS
VL: B1 VL with H18Q, Y31H, N32S, S48A, Y54D, S57F, V96G
B4: anti-TMEM106B antibody TM-18 (antibody, V domains shown)
VH: EVRLQQSGPELVKPGASVKISCKTSGYTFTDYYMNWVKQSHGKSLEWIVNINPNNGDAFYNQKFKGKATLTVDKSSNTAYLDLRSLTSEDSAVYYCAREGQLRLRRVYAMDYWGQGTSVTVSS
VL: DIVLAQSPASLAVSLGQRATISCRASKSVSISVYTYVHWYQQKPGQPPKLLIYLASNLESGVPARFSGSGSGTDFTLNIHPVEEEDAATYYCQHSRELPYTFGGGTKLEIK
B5: anti-TMEM106B antibody TM-4 (antibody, V domains shown)
VH: EVQVQQSGPVLVKPGASVKMSCKASGYTFTDYYMNWVKQSHGKNLEWIGVINPYNGGTSYHQKFKGKATLTVDKSSSTAYMELNSLTSEDSAVYYCARAATVVAGFDYWGQGTTLTVSS
VL: QAVVTQESALTTSPGETVTLTCRSSTGAVTTSNYANWVQEKPDHLFTGLIGGTNNRAPGVPARFSGSLIGDKAALTITGAQTEDEAIYFCVLWYSNHLVFGGGTKLTVL
B6: anti-TMEM106B antibody TM-2 (antibody, V domains shown)
VH: HIQLVQSGPELKKPGETVKISCKASGYTFTEYPMHWVKQAPGKGFRWMGMIYTNTGEPTYAAEFKGRFAFSLETSASTGYLQINNLKNEDSATYFCVTAGYWGQGTLVTVSA
VL: QIVLTQSPAILSASPGEKVTMTCRASSSVSYIHWFLQKPGSSPKPWIYATSNLASGVPFRFIGSGSGTSYSLTISGVEAEDSATYYCQQWSSNPSTFGAGTKLELK

Legend:
[1] = target: T1, human TMEM106B (human, UniProt Q9NUM4 2-274); assay: FACS U251;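 further: flow cytometry of cells exposed to antibody (purified at 10 µg/mL, or hybridoma supernatant) for 1 h on ice, with propidium iodide-positive dead cells gated out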
T1 construct: Full-length, on transiently transfected HEK293 cells, or natively expressed on HeLa, U251 and A549 cells; also called huTMEM106B; huTMEM
Experimental: (§1) All cells were cultured in either T75 or T150 flasks. […] The enzyme was quenched by addition of fresh media, and the cells were then distributed into 96-well plates for FACS analysis.
(§2) FACS analysis was performed as follows. Each cell type was aliquoted in 96-well round bottom plates (2x10^5 cells per well), washed once with FACS buffer (PBS + 2% FBS + 1 mM EDTA), and incubated with 50 µL of hybridoma supernatant or purified antibody (10 µg/ml in FACS buffer) on ice for 1 hour. […] Following this secondary incubation, the cells were again washed 2x with ice-cold FACS buffer and resuspended in a final volume of 50 µL of FACS buffer + 0.25 µl/well propidium iodide (Fisher Scientific # BDB556463). Analysis was performed on a FACSCanto system (BD Biosciences) or iQue (Intellicyt), with sort gates drawn to exclude dead (i.e., propidium iodide positive) cells.
(§3) Data is presented as mean fluorescence intensity (MFI).

[2] = target: T1, human TMEM106B; assay: FACS A549, 1 ug/ml
[3] = target: T1, human TMEM106B; assay: FACS HEK+huTMEM, 10 ug/ml;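 further: purified mouse IgG antibodies at 10 µg/ml bound to HEK293 cells transiently expressing human TMEM106B, measured by flow cytometry as median fluorescence intensity of propidium iodide negative live cells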
[4] = target: T1, human TMEM106B; assay: FACS A549
Experimental: as §1, §2, §3

[5] = target: T1, human TMEM106B; assay: FACS HEK+huTMEM, 0.1 ug/ml;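 further: flow cytometry binding of purified mouse IgG antibodies to HEK293 cells transiently expressing TMEM106B, read as median fluorescence intensity with propidium iodide positive dead cells gated out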
Experimental: (§4) Purified anti-TMEM106B antibodies were evaluated for their binding affinity to various TMEM106B-expressing cell lines including HEK293 transiently transfected with human/cyno/mouse TMEM106B, as well as HeLa cells and A549 cells. Antibodies tested for this experiment were mouse IgGs purified from hybridoma supernatant. Affinity binding to cells was determined as follows. Briefly, 1x10^5 cells were aliquoted per well in 96-well round bottom plates and incubated with 50 µL of purified anti-TMEM106B antibody at various concentrations (10x dilutions starting at 10 µg/ml) in FACS buffer (PBS + 2% FBS + 1 mM EDTA). […] Sorting was performed on a iQue (Intellicyt), with sort gates drawn to exclude dead (propidium iodide +) cells. Binding data was analyzed using median fluorescent intensity (MFI) and graphed in Prism. Values presented are MFI.

[6] = target: T1, human TMEM106B; assay: FACS, HEK293 transfectants;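 on fold over negative controls: hybridoma supernatants incubated 30 min on ice with human TMEM106B-expressing HEK293 cells, binding read as anti-mouse-APC median fluorescence on live cells, relative to secondary-antibody-only wells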;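 on fold-change over parental HEK293: flow cytometry binding of hybridoma supernatants to HEK293 cells transiently expressing human, cyno or mouse TMEM106B, read as anti-mouse-APC median fluorescence, live cells only, 30 min on ice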
Experimental: (§5) For screening of the hybridoma cell culture supernatants, humanTMEM106B-transfected HEK293 cells were aliquoted in 96-well round bottom plates (2x10^5 cells per well) and incubated with 50 µL of hybridoma cell culture supernatant on ice for 30 minutes. […] Median fluorescence intensity (MFI) of anti-mouse-APC MFI on TMEM106B+ HEK293 cells was calculated for each clone, and those displaying a signal of at least 2-fold over background compared to a secondary-antibody only well were taken forward for further analysis and characterization.

[7] = target: T2, cynomolgus (cyno) TMEM106B (cynomolgus, UniProt Q9NUM4 2-274 (human entry)); assay: FACS, HEK293 transfectants;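 further: flow cytometry binding of hybridoma supernatants to HEK293 cells transiently expressing human, cyno or mouse TMEM106B, read as anti-mouse-APC median fluorescence, live cells only, 30 min on ice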
T2 construct: on transiently transfected HEK293 cells
Experimental: as §5

[8] = target: T3, mouse TMEM106B (mouse, UniProt Q80X71 2-275); assay: FACS, HEK293 transfectants;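 further: flow cytometry binding of hybridoma supernatants to HEK293 cells transiently expressing human, cyno or mouse TMEM106B, read as anti-mouse-APC median fluorescence, live cells only, 30 min on ice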
T3 construct: on transiently transfected HEK293 cells, or natively expressed on mouse Neuro2a cells; also called moTMEM106B; murine TMEM106B
Experimental: as §5

[9] = target: T3, mouse TMEM106B; assay: FACS Neuro2a;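 further: flow cytometry of cells stained with antibody or hybridoma supernatant (purified antibody at 10 µg/ml) for 1 h on ice, propidium iodide–positive dead cells gated out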
[10] = target: T1, human TMEM106B; assay: FACS A549, 10 ug/ml
[11] = target: T1, human TMEM106B; assay: FACS HeLa;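 further: flow cytometry of cells incubated with hybridoma supernatant or purified antibody at 10 µg/ml for 1 h on ice, propidium iodide–positive dead cells gated out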
Experimental: as §1, §2, §3

[12] = target: T1, human TMEM106B; assay: FACS HEK+huTMEM, 1.0 ug/ml
Experimental: as §4

[13] = target: T4, GST (Pierce) (UniProt P08515 1-218 = GST, limits assumed); assay: ELISA, coated GST;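 further: ELISA on plates coated with GST alone at 1-10 µg/ml, antibodies applied at 100-1000x dilution, bound antibody detected by peroxidase substrate colour after acid stop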
T4 construct: control for the GST part of the fusion protein; also called GST protein; Glutathione-S-transferase

[14] = target: T5, GST-fusion human TMEM106B truncated (human); assay: array SPR, Ab immobilised;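 on koff: antibodies amine-coupled on an MX-96 chip, antigen flowed at 500 nM top concentration in 5-fold serial dilutions, GST alone run as nonspecific-binding control, duplicate measurements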;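 on kon: antibodies amine-coupled on an MX-96 chip, antigen flowed at 500 nM top concentration in 5-fold serial dilutions, GST alone run as nonspecific-binding control, duplicate measurements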
T5 construct: also called GST-TMEM106B-truncated protein; GST-TMEM106B (truncated)
Experimental: Binding kinetic characterization of the purified antibodies was performed by Carterra using a proprietary array SPR instrument (MX-96) as follows. Briefly, antibodies were prepared by diluting to 5 µg/ml in 10 mM Acetate, pH 4.5 (Carterra), at 150 µL/well and then made an additional dilution at 1:10 from there by titrating 11 µl into 100 µL. […] The chip was activated with 18 mM EDC (Sigma Bioxtra) and 4.5 mM S-NHS (Thermo Fisher) diluted in 100 mM MES, pH 5.5, for 7 minutes, and then antibodies were coupled for 10 minutes at 45 µL/minute. After coupling, the chip was returned to the MX-96 and quenched for 7 minutes using 1 M Ethanolamine pH 8.5 (Carterra).
Printed antibodies were profiled for their ability to bind GST-TMEM106B (truncated) protein (described above). Briefly, GST-TMEM106B (truncated) antigen was diluted to 18 µg/ml (500 nM of 36 kDa fusion protein) by mixing 2.7 µL of 2.0 mg/ml antigen into 298 µL Running buffer (HBS-EP+, Teknova with 1 mg/ml BSA, Sigma), and titrated 50 µl into 200 µl for 5-fold serial dilutions. In addition, binding to GST (Pierce) was assayed under the same conditions to determine the extent of any nonspecific binding of the anti-TMEM106B antibodies to GST portion of the TMEM106B-GST fusion protein. Duplicate measurements for each anti-TMEM106B antibody were taken to ensure reproducibility.

[15] = target: T1, human TMEM106B; assay: FACS, HEK293 transfectants; remark: listed apart in the source;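 on fold over negative controls: hybridoma supernatants incubated 30 min on ice with human TMEM106B-expressing HEK293 cells, binding read as anti-mouse-APC median fluorescence on live cells, relative to secondary-antibody-only wells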;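 on fold-change over parental HEK293: flow cytometry binding of hybridoma supernatants to HEK293 cells transiently expressing human, cyno or mouse TMEM106B, read as anti-mouse-APC median fluorescence, live cells only, 30 min on ice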
[16] = target: T1, human TMEM106B; assay: FACS titration on cells, apparent
Experimental: as §4

[17] = target: T1, human TMEM106B; assay: FACS HEK+huTMEM, 0.01 ug/ml
Experimental: as §4

[18] = target: T5, GST-fusion human TMEM106B truncated; assay: ELISA, supernatant
Experimental: (§6) Briefly, 96-well polystyrene plates were coated with 1-10 µg/ml of recombinant GST-TMEM106B-truncated protein or GST (Pierce) in PBS either at 370 Cfor 1-4 hours or overnight at 4 °C. Coated plates were then blocked with 5% BSA for 1-hour, washed 3×150 µL in TBST (Tris-buffered saline + 0.1% Tween20), and then the antibodies were added at various dilutions (100-1000x) in PBS. After 1-hour incubation (room temperature, with shaking), the plates were washed 3x150 µL in TBST. […] After a final set of washes (3×150µL in TBST), 100 µL of peroxidase substrate was added for 1 minute; the reaction was then quenched with 2N sulfuric acid (100 µL).

[19] = target: T5, GST-fusion human TMEM106B truncated; assay: ELISA, supernatant 100-1000x
Experimental: as §6

[20] = target: T5, GST-fusion human TMEM106B truncated; assay: array SPR, Ab immobilised; remark: listed apart in the source;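 on koff: antibodies amine-coupled on an MX-96 chip, antigen flowed at 500 nM top concentration in 5-fold serial dilutions, GST alone run as nonspecific-binding control, duplicate measurements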;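 on kon: antibodies amine-coupled on an MX-96 chip, antigen flowed at 500 nM top concentration in 5-fold serial dilutions, GST alone run as nonspecific-binding control, duplicate measurements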

Binder	MFI [1]	MFI [2]	MFI [3]	MFI [4]	MFI [5]	fold-change over parental HEK293 [6] [fold]	fold-change over parental HEK293 [7] [fold]	fold-change over parental HEK293 [8] [fold]	MFI [9]	MFI [10]	MFI [11]	MFI [12]	binding result [13]	Kd [14]	koff [14]	kon [14]	fold over negative controls [15] [fold]	Kd [16] [nM]	MFI [17]	binding result [18]	also measured
B1	244	364	2380	1460	1330	4.72	11.7	4.61	253	409	253	2010	no binding	14 nM and 13 nM	0.00057 s⁻¹ and 0.00069 s⁻¹	40000 M⁻¹ s⁻¹ and 52000 M⁻¹ s⁻¹	> 2	~1	655		
B2	313	399	3580	1570	833				400	478	408	2100	no binding						500	binds	
B3	878	3640	79000	1820	29800	13.8	34.9	36	2140	4960	2430	66800	no binding				> 2	~1	3340	binds	
B4	874	2620	71700	1490	10600	18.8	38.8	29	1930	5190	1920	67300	no binding	7.3 nM and 11 nM	7.2e-05 s⁻¹ and 9.4e-05 s⁻¹	9900 M⁻¹ s⁻¹ and 8500 M⁻¹ s⁻¹	> 2	~1	1740		
B5	349	373	846	916	304	1.13	2.08			443	323	415	no binding				> 2		282		binding result [19]: no binding
B6	1410	1090	55500	1890	4730	9.84	32.3	17.5	2900	3360	2530	29300	no binding	0.9 nM and 1.2 nM	1.1e-05 s⁻¹ and 1e-05 s⁻¹	12000 M⁻¹ s⁻¹ and 8300 M⁻¹ s⁻¹	> 2		1440		Kd [20]: ~1 nM
